Laboratory results reported in paper PMC11178655, “Dosimetry and pharmacokinetics of [^177Lu]Lu-satoreotide tetraxetan in patients with progressive neuroendocrine tumours” (European Journal of Nuclear Medicine and Molecular Imaging, 2024).
Where two headings read alike, the source gives them in different places. Where a SMILES comes first, the peptide text is derived from it. Bridges are numbered along the chain shown (N, C = ends). [ ]: non-standard residue; d: D form. The star is where a group is joined. DOTA = O=C(O)CN1CCN(CC(=O)O)CCN(CC(=O)*)CCN(CC(=O)O)CC1; dPhe(4-NHCONH2) = NC(=O)Nc1ccc(C[C@@H](N)C(=O)O)cc1; Dihydroorotyl(S) = O=C1C[C@@H](C(=O)*)NC(=O)N1; Phe(4-Cl) = N[C@@H](Cc1ccc(Cl)cc1)C(=O)O; Phe(4-NH2) = Nc1ccc(C[C@H](N)C(=O)O)cc1

Tests used:
Type in all cases: in vivo, human
[1] = Radioactive metabolites in plasma; conditions: 1 min, 4 h, and 1, 2, 3, and 6 days after each administration, two study centres
Procedure: (§1) To generate pharmacokinetic data, blood samples (2 mL) were taken at the stop of infusion (0 min) and 5, 30, and 60 min, 4 h, and 1, 2, 3, and 6 days after the end of each [^177Lu]Lu-satoreotide tetraxetan administration. Urine samples were collected over three intervals within 48 h (0–6 h, 6–24 h, and 24–48 h in part A; 0–4 h, 4–24 h, and 24–48 h in part B) following the first treatment cycle of [^177Lu]Lu-satoreotide tetraxetan. Total activity concentrations in whole blood and urine were determined locally, using a gamma counter calibrated for lutetium-177. In two selected study centres, additional blood samples (2 mL) were collected at 1 min, 4 h, and 1, 2, 3, and 6 days after each [^177Lu]Lu-satoreotide tetraxetan administration to evaluate potential radioactive metabolites in plasma.

[2] = Urinary excretion of radioactivity within 48 h (gamma counter); conditions: first treatment cycle; for dose excreted: human, urine, iv, total radioactivity, read-out: Cumulative urinary excretion within 48 h
Procedure: as §1

[3] = Blood pharmacokinetics (total activity in whole blood, gamma counter); conditions: first treatment cycle
Procedure: as §1

[4] = test system: patients with progressive, SSTR-positive NETs; test: Model-based organ dosimetry, OLINDA/EXM version 1.0 (part B, first cycle); conditions: OLINDA/EXM 1.0, part B, median
Procedure: Patient-specific dosimetry calculations were performed after each treatment cycle in both parts A and B, using the absorbed dose calculation features of the NUKDOS software for image-based dosimetry calculations. The NUKDOS software was chosen as it allowed for an integral approach to organ dosimetry (including image quantification, time-activity curve-fitting and dosimetry calculation). For the bone marrow, both image-based and blood-based calculations were performed in part A [28, 29]. In part B, only image-based bone marrow dosimetry was performed. Organ Level INternal Dose Assessment/EXponential Modelling (OLINDA/EXM) version 1.0 software, the most widely used version at the time of the study, was used to perform model-based dosimetry calculations, which were only performed after the first [^177Lu]Lu-satoreotide tetraxetan cycle for patients in part B. To generate organ-specific absorbed doses, TIACs were used as input data. Full details on OLINDA/EXM software settings and organ-specific TIAC calculation methods are provided in the Supplementary Information.
Patient-specific dosimetry calculations were performed according to European Association of Nuclear Medicine Dosimetry Guidance after each treatment cycle in both parts A and B, using the absorbed dose calculation features of the NUKDOS software (i.e., integration of the time-activity curves, calculation of the absorbed dose). Model-based dosimetry calculations were only performed after the first [^177Lu]Lu-satoreotide tetraxetan cycle and for patients in part B. To generate organ-specific absorbed doses, TIACs were used as input data in the Organ Level INternal Dose Assessment/EXponential Modelling (OLINDA/EXM) software version 1.0, which was granted Food and Drug Administration 510(k) clearance in June 2004. The following settings were applied: ^177Lu isotope, no bladder voiding model, adult male or female phantom. As the OLINDA/EXM software makes no distinction between the right and left kidneys, their TIACs were summed. In case biokinetic data were available for one kidney only, the kidney TIAC value was doubled. For the bone marrow, the patient-specific mass of the analysed vertebrae was used for upscaling image-based TIAC values according to the OLINDA/EXM phantom gender-specific masses (mBone marrow=1,120 g for males and 1,300 g for females):
The kidney, spleen, liver, and bone marrow TIACs were subtracted from the patient’s whole-body TIAC to obtain the TIAC of the remainder of the body.

C[C@@H](O)[C@@H]1NC(=O)[C@H](CCCCN)NC(=O)[C@@H](Cc2ccc(NC(N)=O)cc2)NC(=O)[C@H](Cc2ccc(NC(=O)[C@@H]3CC(=O)NC(=O)N3)cc2)NC(=O)[C@H](NC(=O)[C@H](Cc2ccc(Cl)cc2)NC(=O)CN2CCN(CC(=O)O)CCN(CC(=O)O)CCN(CC(=O)O)CC2)CSSC[C@@H](C(=O)N[C@H](Cc2ccc(O)cc2)C(N)=O)NC1=O [[^177Lu]Lu-satoreotide tetraxetan, metal not drawn] ({DOTA}-[Phe(4-Cl)][dC][Phe(4-NH2)](Dihydroorotyl(S))[dPhe(4-NHCONH2)]KTC[dY]-NH2; disulfide 2-7 (inferred); C-terminus assumed)
Radioactive metabolites in plasma samples [1]: No radioactive metabolites were observed
Cumulative urinary excretion within 48 h ([2]; patients treated with 4.5 GBq): 57–66%
Radioactivity excreted via urine within 48 hours ([2]; patients treated with 4.5 GBq, range of medians across groups): 2.6–3.0 GBq
Radioactivity excreted via urine within 48 hours ([2]; patients treated with 6 GBq, median): 3.4 GBq
dose excreted ([2]; patients treated with 4.5 GBq): 57 to 66%
dose excreted ([2]; patients treated with 6 GBq): ~57%
Extrapolated area under the concentration-time curve (AUC0–infinity), mean [3]: 742.0 ± 303.0 MBq.h/L
Terminal blood half-life, mean ± SD ([3]; gamma counter): 110.0 ± 50.1 h
Terminal blood half-life, median ([3]; gamma counter): 127 h
Blood uptake at 1–5 minutes (peak) ([3]; median): 3.03 % administered activity/L
Calculated absorbed dose for 3 cycles of 4.5 GBq each, Red marrow ([4]; N = 18): 1.47 Gy
Calculated absorbed dose for 3 cycles of 4.5 GBq each, Spleen ([4]; N = 18): 8.78 Gy
Calculated absorbed dose for 3 cycles of 4.5 GBq each, Adrenals ([4]; N = 24): 1.03 Gy
Calculated absorbed dose for 3 cycles of 4.5 GBq each, Brain ([4]; N = 24): 0.96 Gy
Calculated absorbed dose for 3 cycles of 4.5 GBq each, Breasts ([4]; N = 24): 0.95 Gy
Calculated absorbed dose for 3 cycles of 4.5 GBq each, Gallbladder wall ([4]; N = 24): 1.02 Gy
Calculated absorbed dose for 3 cycles of 4.5 GBq each, Heart wall ([4]; N = 24): 0.99 Gy
Calculated absorbed dose for 3 cycles of 4.5 GBq each, Kidneys ([4]; N = 24): 14.18 Gy
Calculated absorbed dose for 3 cycles of 4.5 GBq each, Lungs ([4]; N = 24): 0.98 Gy
Calculated absorbed dose for 3 cycles of 4.5 GBq each, Muscle ([4]; N = 24): 0.97 Gy
Calculated absorbed dose for 3 cycles of 4.5 GBq each, Osteogenic cells ([4]; N = 24): 3.96 Gy
Calculated absorbed dose for 3 cycles of 4.5 GBq each, Ovaries ([4]; N = 24): 1.00 Gy
Calculated absorbed dose for 3 cycles of 4.5 GBq each, Pancreas ([4]; N = 24): 1.05 Gy
Calculated absorbed dose for 3 cycles of 4.5 GBq each, Skin ([4]; N = 24): 0.93 Gy
Calculated absorbed dose for 3 cycles of 4.5 GBq each, Small intestine ([4]; N = 24): 1.00 Gy
Calculated absorbed dose for 3 cycles of 4.5 GBq each, Stomach wall ([4]; N = 24): 1.01 Gy
Calculated absorbed dose for 3 cycles of 4.5 GBq each, Thymus ([4]; N = 24): 0.98 Gy
Calculated absorbed dose for 3 cycles of 4.5 GBq each, Thyroid ([4]; N = 24): 0.96 Gy
Calculated absorbed dose for 3 cycles of 4.5 GBq each, Total body ([4]; N = 24): 1.08 Gy
Calculated absorbed dose for 3 cycles of 4.5 GBq each, Liver ([4]; N = 24, may be an underestimation): 1.07 Gy
Calculated absorbed dose for 3 cycles of 4.5 GBq each, Uterus ([4]; female patients N = 11): 1.13 Gy
Calculated absorbed dose for 3 cycles of 4.5 GBq each, Testes ([4]; male patients N = 13): 0.72 Gy
Calculated absorbed dose for 3 cycles of 4.5 GBq each, LLI wall ([4]; lower large intestine, N = 24): 1.00 Gy
Calculated absorbed dose for 3 cycles of 4.5 GBq each, ULI wall ([4]; upper large intestine, N = 24): 1.01 Gy
Calculated absorbed dose for 3 cycles of 4.5 GBq each, UB wall ([4]; urinary bladder, N = 24): 0.99 Gy
